From patent US20250163186A1 (PHYLAXIS BIOSCIENCE, published 2025) come the findings set out here.

Assay [1] deals with T1, CH2-4 constant domains of human IgE linked to a transmembrane protein, on 293 cells (human, UniProt P01854-1 104-428).
T1 construct: domain: CH2-4 constant domains; also called human IgE-expressing 293 cells
In words: flow cytometry, 293 cells expressing human IgE CH2-4. As to the method: (§1) First, 25 μg of DNA was added to Opti-MEM Reduced Serum Medium (Gibco) mixed with 75 μL of 40 kDa Polyethylenimine (PEI) for a final concentration of 1 μg DNA and 2.5 μg PEI per mL of culture volume. The plasmid DNA was allowed to pre-complex with PEI for 15 minutes before transferring the mixture to 25 mL of 293 cells in a shake flask at a density of 2×10⁶ cells/mL. […] Next, 50 μL of cells were transferred to wells of a round-bottom 96-well assay plate for a total of 50,000 293 cells per well. In a separate 96-well plate, monomeric VHH-hIgG1-Fc fusion proteins were titrated 1:5 in a 8-point dilution series starting at 1 μM in FACS Buffer with the 8th point containing no antibody. 50 μL from each antibody dilution was added to wells containing 50 μL of FACS Buffer with transfected 293 cells which produced a 2-fold dilution of the antibody concentrations from the dilution series resulting in a 500 nM final, starting concentration of the test article titration. The test articles and 293 cells were incubated together at 4° C. for 30 minutes. Next, the 96-well plates were centrifuged at 400×g for 5 minutes and the FACS buffer containing unbound antibody was decanted. Cells were washed 1× with 150 μL 4° C. FACS Buffer. […] The cells were incubated with the fluorophore conjugated detection antibody at 4° C. for 20 minutes. 293 cells were then centrifuged and washed once as described above. Cell pellets were resuspended in 30 μL FACS Buffer and analyzed on an iQue Screener Plus flow cytometer (Sartorius, IntelliCyt) with a 1 second sip time and 1 second void time. Mean fluorescent intensity was calculated using iQue onboard software gating on GFP+ or citrine+ cells.
(Flow cytometry measures light scatter and fluorescence of single cells or particles in a stream.)

Assay [2] concerns the target T1, CH2-4 constant domains of human IgE …. Described as above. The protocol: as §1
The source holds these as a separate data set.

Assay [3] has the same target. Described as above. As to the method: as §1
This is another data set of the same source.

Assay [4] shares this target. The assay is described as above. As to the method:
as §1
This is another data set of the same source.

The target is the same in assay [5]. The description is as above. The protocol: as §1
The source holds these as a separate data set.

In assay [6] the target is T2, human IgE (human, UniProt P01854 1-428).
T2 construct: written under the same molecule; also called IgE (Abcam ab65866); soluble IgE
T2 sequence (P01854 other isoform, or with tags, fused parts or gaps limits assumed, form in doubt): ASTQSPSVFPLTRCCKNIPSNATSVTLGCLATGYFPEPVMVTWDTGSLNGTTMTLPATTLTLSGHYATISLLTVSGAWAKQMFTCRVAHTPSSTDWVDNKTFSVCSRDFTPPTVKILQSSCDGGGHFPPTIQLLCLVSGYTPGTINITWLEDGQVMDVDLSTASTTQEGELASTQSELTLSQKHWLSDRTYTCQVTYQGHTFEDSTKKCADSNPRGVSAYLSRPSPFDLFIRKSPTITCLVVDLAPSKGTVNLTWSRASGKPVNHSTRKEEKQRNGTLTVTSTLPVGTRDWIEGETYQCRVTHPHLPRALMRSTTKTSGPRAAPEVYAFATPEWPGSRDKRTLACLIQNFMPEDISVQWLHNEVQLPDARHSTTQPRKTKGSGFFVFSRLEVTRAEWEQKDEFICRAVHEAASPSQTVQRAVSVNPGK
In words: ELISA, plate-coated IgE. (An ELISA detects its analyte on a solid surface through an enzyme-linked reagent.)

Assay [7] has as its target T3, recombinant human FCER1A-His (ACRO FCA-H5228) (human, UniProt P12319 26-205).
T3 construct: Bought protein; also called FceRIA; IgE receptor
T3 sequence: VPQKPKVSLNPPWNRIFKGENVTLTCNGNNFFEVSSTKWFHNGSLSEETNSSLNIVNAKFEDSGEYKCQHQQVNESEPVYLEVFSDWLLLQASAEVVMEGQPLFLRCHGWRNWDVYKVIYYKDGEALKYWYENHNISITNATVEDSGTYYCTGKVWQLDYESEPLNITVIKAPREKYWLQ
In words: SPR, antibody alone injected over captured FCER1A. As to the method:
(§2) All experiments were done using a Biacore T200 instrument with a CM5 chip at 25° C., Flow Cell (FC) 1 was used as the reference for FC2, and FC3 for FC4.
(§3) Anti-His antibody (1 mg/ml stock) was diluted (1:100 dilution, 0.01 mg/ml diluted concentration) in 10 mM sodium acetate buffer at pH 4.5 and immobilized onto FCs 1 and 2 to a level of ˜14000 RU, using the standard amine coupling chemistry. […] FCER1A (0.4 mg/ml stock concentration) was diluted ([…], ˜0.004 mg/ml diluted concentration) in PBS-P captured onto FC2 to levels of ˜130 RU. PBS-P was used as the capture running buffer. Overnight kinetics were performed for all analytes in the presence of PBS-P. The flow rate of all analyte solutions was maintained at 50 μL/min. The contact and dissociation times used were 120 seconds and 300 seconds, respectively. Glycine pH 1.5 was injected for 20 seconds for surface regeneration. This regeneration condition takes away all captured FCER1A. Therefore, fresh FCER1A was captured in the beginning of each injection cycle. […] All analytes were injected in duplicate. […] Sensorgrams from the overnight kinetics were plotted for further evaluation.

Assay [8] concerns the target T2, human IgE. In words: ELISA, plate-coated IgE, apparent Kd (one site fit). The source says:
The data was plotted and analyzed using GraphPad Prism analysis software.

Assay [9] deals with T2, human IgE. The assay is described as follows: SPR, blocks binding of 5 nM IgE to captured FCER1A. As to the method:
as §2, §3
(Surface plasmon resonance follows binding to a sensor surface in real time, without labels.)

For assay [10], the target named is T2, human IgE. In words: SPR (Biacore T200, 25 C), IgE captured on protein L, antibody as analyte, 1:1 fit. The protocol:
as §2
Protein L (15 mg/mL) was diluted (1:50 dilution, 0.3 mg/mL diluted concentration) in 10 mM sodium acetate buffer at pH 4.5 and immobilized onto FCs 1 and 2 to a level of ˜13000 RU, using the standard amine coupling chemistry. […] PBS-P was used as the capture running buffer. Overnight kinetics were performed for all analytes in the presence of PBS-P. The flow rate of all analyte solutions was maintained at 50 μL/min. The contact and dissociation times used were 120 seconds and 600 seconds, respectively. Glycine pH 2.0 was injected for 20 seconds for surface regeneration. This regeneration condition takes away all captured ligand. Therefore, fresh ligand solution was captured in the beginning of each injection cycle. Injected analyte concentrations are from 50 nM to 0.098 nM (two-fold dilutions). All analytes were injected in duplicate. Sensorgrams from the overnight kinetics were evaluated by using 1:1 kinetics model fitting.

Read-outs that look alike come from different tables or passages of the source.

T1 sequence (P01854 other isoform, or with tags, fused parts or gaps): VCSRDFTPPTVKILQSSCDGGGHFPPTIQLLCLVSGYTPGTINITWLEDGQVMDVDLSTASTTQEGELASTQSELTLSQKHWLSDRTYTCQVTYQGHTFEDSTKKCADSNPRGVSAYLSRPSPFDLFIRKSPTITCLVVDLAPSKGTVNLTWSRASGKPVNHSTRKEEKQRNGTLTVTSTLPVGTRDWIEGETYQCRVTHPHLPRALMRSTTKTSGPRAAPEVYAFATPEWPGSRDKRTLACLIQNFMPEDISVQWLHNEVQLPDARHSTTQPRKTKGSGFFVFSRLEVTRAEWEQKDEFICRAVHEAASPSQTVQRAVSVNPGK

B1: hzB10v30-NNT (Fc fusion)
VHH-Fc: EVQLLESGGGEVQPGGSLRLSCVASGLTFSSYNMGWLRQAPGKEREFVGLSGSSSTSTYYAESVKGRFTISRDNSKNTVYLQMTSLRAEDTAVYYCAARRLLSTYWSDRSWDFWGQGTQVTVEPGGPSVFLFPPKPKDTLMISRTPEVTCVVVDVSHEDPEVKFNWYVDGVEVHNAKTKPREEQYNSTYRVVSVLTVLHQDWLNGKEYKCKVSNKALPAPIEKTISKAKGQPREPQVYTLPPSRDELTKNQVNLTCLVKGFYPSDIAVEWESNGQPENNYKTTPPVLDSDGSFFLNSTLTVDKSRWQQGNVFSCSVMHEALHNHYTQKSLSLSPGK
notes: monomeric
In assay [1], B1 gave a Bmax of 725000 MFI. The values for the Kd in assay [1] and in assay [2] were 1.63 nM and 1.69 nM, respectively.

B2: hzB10v39-NNT (Fc fusion)
VHH-Fc: EVQLLESGGGEVQPGGSLRLSCVASGLTFSSYNMGWLRQAPGKEREFVGLSGSSSTSTYYAESVKGRFTISRDNSKNTVYLQMTSLRAEDTAVYYCAARRLLSTYWSDRSWDFWGQGTLVTVEPGGPSVFLFPPKPKDTLMISRTPEVTCVVVDVSHEDPEVKFNWYVDGVEVHNAKTKPREEQYNSTYRVVSVLTVLHQDWLNGKEYKCKVSNKALPAPIEKTISKAKGQPREPQVYTLPPSRDELTKNQVNLTCLVKGFYPSDIAVEWESNGQPENNYKTTPPVLDSDGSFFLNSTLTVDKSRWQQGNVFSCSVMHEALHNHYTQKSLSLSPGK
notes: monomeric
B2 returned a Kd in assay [2] of 1.37 nM.

B3: hzB10v38-NNT (Fc fusion)
VHH-Fc: EVQLLESGGGEVQPGGSLRLSCVASGLTFSSYNMGWLRQAPGKEREFVGLSGSSSTSTYYAESVKGRFTISRDNSKNTVYLQMTSLRPEDTAVYYCAARRLLSTYWSDRSWDFWGQGTLVTVEPGGPSVFLFPPKPKDTLMISRTPEVTCVVVDVSHEDPEVKFNWYVDGVEVHNAKTKPREEQYNSTYRVVSVLTVLHQDWLNGKEYKCKVSNKALPAPIEKTISKAKGQPREPQVYTLPPSRDELTKNQVNLTCLVKGFYPSDIAVEWESNGQPENNYKTTPPVLDSDGSFFLNSTLTVDKSRWQQGNVFSCSVMHEALHNHYTQKSLSLSPGK
notes: monomeric
In [2], B3 came in with a Bmax of 2.02e+06 MFI and a Kd of 0.98 nM.

B4: hzB10v37-NNT (Fc fusion)
VHH-Fc: EVQLLESGGGEVQPGGSLRLSCVASGLTFSSYNMGWLRQAPGKEREFVGLSGSSSTSTYYAESVKGRFTISRDNSKNTVYLQMTSLKAEDTAVYYCAARRLLSTYWSDRSWDFWGQGTLVTVEPGGPSVFLFPPKPKDTLMISRTPEVTCVVVDVSHEDPEVKFNWYVDGVEVHNAKTKPREEQYNSTYRVVSVLTVLHQDWLNGKEYKCKVSNKALPAPIEKTISKAKGQPREPQVYTLPPSRDELTKNQVNLTCLVKGFYPSDIAVEWESNGQPENNYKTTPPVLDSDGSFFLNSTLTVDKSRWQQGNVFSCSVMHEALHNHYTQKSLSLSPGK
notes: monomeric
Turning to B4, in assay [2], the Bmax came out at 1.9e+06 MFI and the Kd stood at 1.51 nM.

B5: B10-NNT (Fc fusion)
VHH-Fc: EVQLVQSGGELVQAGGSLRLSCVASGLTFSSYNMGWLRQAPGKEREFVGMSGSSSTSTYYADSVKGRFTISRDNSKNTVYLQMNSLKPEDTAVYYCAARRMLSTYWSDRSWDFWGQGTQVTVKPGGPSVFLFPPKPKDTLMISRTPEVTCVVVDVSHEDPEVKFNWYVDGVEVHNAKTKPREEQYNSTYRVVSVLTVLHQDWLNGKEYKCKVSNKALPAPIEKTISKAKGQPREPQVYTLPPSRDELTKNQVNLTCLVKGFYPSDIAVEWESNGQPENNYKTTPPVLDSDGSFFLNSTLTVDKSRWQQGNVFSCSVMHEALHNHYTQKSLSLSPGK
notes: monomeric; also called parental B10 monomeric VHH-hIgG1-Fc fusion (Fc NNT)
On to B5, for which the Bmax worked out at 1.36e+06 MFI in [3], 866000 MFI in assay [1], 2.04e+06 MFI in [2] and 1.17e+06 MFI in [5]. Further, the Kd in [3] was 1.82 nM; in assay [4] it was 1.82 nM; in assay [1], 0.461 nM; in assay [2] it was 0.872 nM; in assay [5] it was 1.3 nM.

B6: hzB10v14-IgG1 DSELF Fc region (cx12739) (Fc fusion)
chain: EVQLLESGGGEVQPGGSLRLSCVASGLTFSSYNMGWLRQAPGKEREFVGLSGSSSTSTYYADSVKGRFTISRDNSKNTVYLQMNSLKPEDTAVYYCAARRLLSTYWSDRSWDFWGQGTQVTVEPGGGGDKTHTCPPCPAPELLDGPSVFLFPPKPKDTLMISRTPEVTCVVVDVEHEDPEVKFNWYVDGVEVHNAKTKPREEQYNSTYRVVSVLTVLHQDWLNGKEYKCKVSNKAFPAPIEKTISKAKGQPREPQVYTLPPSREEMTKNQVSLTCLVKGFYPSDIAVEWESNGQPENNYKTTPPVLDSDGSFFLYSKLTVDKSRWQQGNVFSCSVMHEALHNHYTQKSLSLSPGK
notes: hzB10v14 VHH + GGGG linker + human IgG1 Fc with G236D/S267E/L328F; the Fc drives homodimer formation (bivalent); also called hzB10v14-DSELF; hzB10v14-IgG DSELF Fc
A word on the IC50: it is the concentration that inhibits the measured activity by half. A lower IC50 goes with greater potency in that assay. The koff is the rate constant with which the complex falls apart. For orientation: kon means a measure of how fast the partners come together. A higher kon goes with faster complex formation. Take B6: in the assay with human IgE [6], the “Bmax (OD 650 nm)” value amounted to 0.742 OD 650 nm. Moreover, in assay [7], the binding result is “no binding (tested: 200 nM)”. Also, the Kd in the assay with human IgE [8] was 0.197 nM. Besides, the IC50 with human IgE [9] was about 2.4 nM. Further, in the assay with human IgE [10], the Kd came out at 0.8 nM, the koff was 0.000288 s⁻¹ and the on-rate (kon) came out at 359000 M⁻¹ s⁻¹.
